The values that follow come from article PMC2855743 (Journal of molecular biology, 2010).

Changes are numbered by the printed parent chain. In names and notes the source's numbering stands. Like-named read-outs stand apart in the source and are kept apart here.

Data set [1] concerns the target T1, ComAC (ComA C-terminal DNA-binding domain) (Bacillus subtilis, UniProt P14204 146-214).
T1 sequence: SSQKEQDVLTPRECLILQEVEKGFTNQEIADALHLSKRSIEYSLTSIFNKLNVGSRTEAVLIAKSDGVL
Briefly: SPR. (In general: Surface plasmon resonance follows binding to a sensor surface in real time, without labels.)

The data set “SEC” concerns the molecule itself. Briefly: SEC. A general note: In gel filtration, larger molecules generally elute earlier.
Data set [2] concerns the target T1, ComAC (ComA C-terminal DNA-binding …). Briefly: SPR. The source holds these as a separate data set.

B1: Consensus RE1-RE3 (dsDNA)
DNA 1: TTGCGGCATCCCGCAAGAAACTTTGCGG
DNA 2: CCGCAAAGTTTCTTGCGGGATGCCGCAA
One may read the Kd as the constant that tells how readily two partners part at equilibrium. A high value points to a looser complex. B1 yielded a Kd in data set [1] of 11.3 nM.

B2: N-terminal domain of competence protein A (ComAN, residues 1-126) (domain or fragment, Bacillus subtilis, UniProt P14204 1-126, looked up)
chain: MKKILVIDDHPAVMEGTKTILETDSNLSVDCLSPEPSEQFIKQHDFSSYDLILMDLNLGGEVNGMELSKQILQENPHCKIIVYTGYEVEDYFEEAIRAGLHGAISKTESKEKITQYIYHVLNGEIL
A word on the stoichiometry N: it is the number of molecules, sites or subunits per partner or assembly. With B2, the “stoichiometry N” value in the data set “SEC” amounted to 2.

B3: N-terminal domain of competence protein A with asparagine at position 55 (ComAN-D55N, residues 1-126) (domain or fragment, Bacillus subtilis, UniProt P14204 1-126, looked up)
chain: B2 chain with D55N
B3: the “stoichiometry N” value in the data set “SEC” stood at 2.

B4: Full-length competence protein A (ComAFL) (natural protein, Bacillus subtilis, UniProt P14204 1-214, looked up)
chain: MKKILVIDDHPAVMEGTKTILETDSNLSVDCLSPEPSEQFIKQHDFSSYDLILMDLNLGGEVNGMELSKQILQENPHCKIIVYTGYEVEDYFEEAIRAGLHGAISKTESKEKITQYIYHVLNGEILVDFAYFKQLMTQQKTKPAPSSQKEQDVLTPRECLILQEVEKGFTNQEIADALHLSKRSIEYSLTSIFNKLNVGSRTEAVLIAKSDGVL
As to B4, in “SEC”, the “stoichiometry N” value was determined as 2.

B5: Consensus RE3 (dsDNA)
DNA 1: TTTCGGCATCCCGCATGAAACTTTGCGG
DNA 2: CCGCAAAGTTTCATGCGGGATGCCGAAA
In the case of B5, the Kd in data set [2] stood at 4.94 nM.

B6: Wild type srfA (dsDNA)
DNA 1: TTTCGGCATCCCGCATGAAACTTTTCAC
DNA 2: GTGAAAAGTTTCATGCGGGATGCCGAAA
Consider B6, for which the Kd in data set [2] is 9.59 nM. This Kd lies about 1.9-fold higher than the previous one.
